Assay results from paper PMC11398535 (bioRxiv, 2024).

Molecular target: T1, peptide-8 (DEIVNKVL), derived from the ESCRT-III family member Vps2p
T1 peptide: {5(6)‑carboxyfluorescein}-DEIVNKVL-NH2
Assay: fluorescence polarisation

- fold tighter than Vps4p: 8 fold
B1: Vps4p^L7C/A43C (MIT domain stabilised by a disulfide bond) (enzyme, S. cerevisiae, UniProt P52917 1-437, looked up)
chain: MSTGDFCTKGIELVQKAIDLDTATQYEEAYTAYYNGLDYLMLCLKYEKNPKSKDLIRAKFTEYLNRAEQLKKHLESEEANAAKKSPSAGSGSNGGNKKISQEEGEDNGGEDNKKLRGALSSAILSEKPNVKWEDVAGLEGAKEALKEAVILPVKFPHLFKGNRKPTSGILLYGPPGTGKSYLAKAVATEANSTFFSVSSSDLVSKWMGESEKLVKQLFAMARENKPSIIFIDEVDALTGTRGEGESEASRRIKTELLVQMNGVGNDSQGVLVLGATNIPWQLDSAIRRRFERRIYIPLPDLAARTTMFEINVGDTPCVLTKEDYRTLGAMTEGYSGSDIAVVVKDALMQPIRKIQSATHFKDVSTEDDETRKLTPCSPGDDGAIEMSWTDIEADELKEPDLTIKDFLKAIKSTRPTVNEDDLLKQEQFTRDFGQEGN
modifications: disulfide bond between C7 and C43 of the MIT domain
